The text below walks through data of patent US20220332804A1 (CSL INNOVATION, published 2022).

What all share (test): SPR; KD relative to WT C2;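 also: biacore SPR at 37 °C, anti-C2 mAbs captured on an anti-human IgG chip, alanine or serine C2 surface mutants tested, KD from 1:1 fit compared with wild-type C2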
(In SPR one partner is held on a chip, and binding of the other changes the refractive index at the surface.)

The target in test [1] is T1, human C2 V455A (human, UniProt P06681 21-752).
T1 sequence: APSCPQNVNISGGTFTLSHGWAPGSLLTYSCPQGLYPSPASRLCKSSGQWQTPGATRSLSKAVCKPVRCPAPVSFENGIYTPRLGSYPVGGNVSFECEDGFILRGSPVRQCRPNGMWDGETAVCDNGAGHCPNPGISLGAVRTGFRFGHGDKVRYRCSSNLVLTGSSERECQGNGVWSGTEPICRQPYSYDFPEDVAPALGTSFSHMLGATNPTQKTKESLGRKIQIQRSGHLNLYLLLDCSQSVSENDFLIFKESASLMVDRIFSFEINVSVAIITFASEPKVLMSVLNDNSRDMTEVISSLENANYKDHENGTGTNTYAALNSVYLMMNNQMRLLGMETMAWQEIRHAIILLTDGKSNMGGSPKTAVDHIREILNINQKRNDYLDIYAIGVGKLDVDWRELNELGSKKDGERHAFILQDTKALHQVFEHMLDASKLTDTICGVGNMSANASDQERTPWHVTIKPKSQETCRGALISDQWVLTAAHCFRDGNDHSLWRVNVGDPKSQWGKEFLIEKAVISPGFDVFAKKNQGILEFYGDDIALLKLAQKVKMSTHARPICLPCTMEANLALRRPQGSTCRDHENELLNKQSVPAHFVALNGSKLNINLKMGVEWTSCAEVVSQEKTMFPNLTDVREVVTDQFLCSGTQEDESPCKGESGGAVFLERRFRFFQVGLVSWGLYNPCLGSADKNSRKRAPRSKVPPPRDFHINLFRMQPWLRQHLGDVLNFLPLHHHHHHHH

The target in test [2] is T2, human C2 K244A (human, UniProt P06681 21-752).
T2 sequence: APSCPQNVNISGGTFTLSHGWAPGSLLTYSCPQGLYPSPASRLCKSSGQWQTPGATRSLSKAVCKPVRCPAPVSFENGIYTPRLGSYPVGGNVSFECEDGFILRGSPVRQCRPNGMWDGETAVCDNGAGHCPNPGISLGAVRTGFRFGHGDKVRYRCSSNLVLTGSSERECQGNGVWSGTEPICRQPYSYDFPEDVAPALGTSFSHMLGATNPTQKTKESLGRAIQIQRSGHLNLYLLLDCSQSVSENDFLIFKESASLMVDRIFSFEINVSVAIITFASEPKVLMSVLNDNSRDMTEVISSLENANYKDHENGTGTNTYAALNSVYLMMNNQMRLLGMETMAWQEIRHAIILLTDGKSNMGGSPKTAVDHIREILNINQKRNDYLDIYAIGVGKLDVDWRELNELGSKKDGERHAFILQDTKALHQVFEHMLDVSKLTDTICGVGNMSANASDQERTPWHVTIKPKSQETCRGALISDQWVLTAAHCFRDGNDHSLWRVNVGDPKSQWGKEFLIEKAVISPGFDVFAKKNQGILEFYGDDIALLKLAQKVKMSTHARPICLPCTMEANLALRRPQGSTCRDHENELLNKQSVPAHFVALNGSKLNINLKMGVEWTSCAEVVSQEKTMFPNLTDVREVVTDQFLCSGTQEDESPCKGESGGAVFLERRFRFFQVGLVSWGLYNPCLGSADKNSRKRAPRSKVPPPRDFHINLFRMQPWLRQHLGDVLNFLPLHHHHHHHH

The target of test [3] is T3, human C2 G677A (human, UniProt P06681 21-752).
T3 sequence: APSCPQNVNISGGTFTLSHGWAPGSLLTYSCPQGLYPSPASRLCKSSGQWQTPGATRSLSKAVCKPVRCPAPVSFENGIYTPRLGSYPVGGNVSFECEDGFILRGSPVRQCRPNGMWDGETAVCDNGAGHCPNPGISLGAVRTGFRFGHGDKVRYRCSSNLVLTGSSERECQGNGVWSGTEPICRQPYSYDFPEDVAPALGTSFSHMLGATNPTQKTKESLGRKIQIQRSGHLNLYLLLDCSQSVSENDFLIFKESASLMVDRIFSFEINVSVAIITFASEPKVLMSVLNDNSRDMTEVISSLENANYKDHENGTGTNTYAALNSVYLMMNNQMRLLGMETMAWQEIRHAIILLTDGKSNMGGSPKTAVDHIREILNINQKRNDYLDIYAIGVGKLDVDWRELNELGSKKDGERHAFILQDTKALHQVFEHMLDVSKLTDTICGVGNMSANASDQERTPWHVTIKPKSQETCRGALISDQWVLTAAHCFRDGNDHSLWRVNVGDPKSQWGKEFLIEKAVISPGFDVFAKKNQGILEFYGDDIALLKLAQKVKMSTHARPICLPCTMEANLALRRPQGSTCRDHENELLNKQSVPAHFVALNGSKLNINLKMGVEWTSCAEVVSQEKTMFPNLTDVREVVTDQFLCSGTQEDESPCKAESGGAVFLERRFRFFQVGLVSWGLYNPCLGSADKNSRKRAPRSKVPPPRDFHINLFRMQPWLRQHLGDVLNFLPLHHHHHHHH

In test [4] the target is T4, human C2 N380A (human, UniProt P06681 21-752).
T4 sequence: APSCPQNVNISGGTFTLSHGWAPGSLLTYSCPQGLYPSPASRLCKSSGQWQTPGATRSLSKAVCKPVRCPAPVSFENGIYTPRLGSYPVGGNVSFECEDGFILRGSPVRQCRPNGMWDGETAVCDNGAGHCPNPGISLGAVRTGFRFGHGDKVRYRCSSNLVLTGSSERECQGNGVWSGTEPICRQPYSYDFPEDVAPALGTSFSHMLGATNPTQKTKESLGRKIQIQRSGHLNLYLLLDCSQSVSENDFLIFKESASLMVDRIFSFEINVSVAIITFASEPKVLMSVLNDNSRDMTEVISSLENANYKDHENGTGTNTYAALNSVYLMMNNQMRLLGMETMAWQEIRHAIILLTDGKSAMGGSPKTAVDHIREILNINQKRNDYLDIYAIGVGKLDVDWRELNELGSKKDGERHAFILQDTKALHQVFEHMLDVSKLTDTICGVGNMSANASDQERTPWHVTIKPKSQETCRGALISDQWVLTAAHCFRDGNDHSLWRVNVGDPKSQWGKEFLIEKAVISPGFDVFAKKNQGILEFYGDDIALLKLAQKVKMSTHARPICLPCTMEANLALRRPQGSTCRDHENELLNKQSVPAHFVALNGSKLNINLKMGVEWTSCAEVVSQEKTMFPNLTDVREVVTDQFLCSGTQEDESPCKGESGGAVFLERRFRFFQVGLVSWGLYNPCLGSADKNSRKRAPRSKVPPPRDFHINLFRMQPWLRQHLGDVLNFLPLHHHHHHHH

B1: RF16-214 (antibody, V domains shown)
VH: EVQLLESGGGLVQPGGSLRLSCAASGFTFSWYQMMWVRQAPGKGLEWVSRIYPSGGGTAYADSVKGRFTISRDNSKNTLYLQMNSLRAEDTAVYYCARDAGYGDNWGQGTLVTVSS
VL: QSALTQPPSVSVSPGQTASITCSGDKLGEKYASWYQQKAGQSPVMVIYQDRKRPSGIPERFSGSNSGNTATLTISGTQAMDEADYYCQAWDTRAVVFGGGTKLTVLG
Take B1: the Fold diff in test [1] is 0 fold; in test [2] it was 3 fold; in test [3], 1 fold; in test [4], 2 fold.
